Four molecules from patent publication US20190022241A1 (AbbVie / Abbott, published 2019) can be followed below.

A value given as a limit tells only on which side of the number the result lay.

In experiment [1] the target is T1, mouse SEZ6 on Neuro2a cells (mouse, UniProt Q7TSK2 20-991).
T1 construct: endogenous on Neuro2a cells; also called murine SEZ6; mSEZ6
The experiment in a line: flow cytometry, Neuro2a cells, 5 ug/mL antibody. In general terms: In flow cytometry, cells or beads pass a laser one at a time.
Protocol: (§1) Briefly 1×10⁵ cells per well of Neuro2a, RIN-5mF, or yeast displaying cynomolgus SEZ6 cells were incubated for 30 minutes with 50 μL PBS (2% FCS) buffer with 5 μg/mL antibody. […] After incubating for 15 minutes cells were washed twice with the PBS buffer and re-suspended in the same with DAPI for flow cytometry analysis of Neuro2a and Rin-m5F or buffer without DAPI for flow cytometric analysis of yeast cells with cSEZ6.

Experiment [2] concerns the target T2, rat SEZ6 on RIN-m5F cells (rat, UniProt Q7TSK2 20-991 (mouse entry)).
T2 construct: endogenous on RIN-m5F cells; also called rSEZ6
T2 chain: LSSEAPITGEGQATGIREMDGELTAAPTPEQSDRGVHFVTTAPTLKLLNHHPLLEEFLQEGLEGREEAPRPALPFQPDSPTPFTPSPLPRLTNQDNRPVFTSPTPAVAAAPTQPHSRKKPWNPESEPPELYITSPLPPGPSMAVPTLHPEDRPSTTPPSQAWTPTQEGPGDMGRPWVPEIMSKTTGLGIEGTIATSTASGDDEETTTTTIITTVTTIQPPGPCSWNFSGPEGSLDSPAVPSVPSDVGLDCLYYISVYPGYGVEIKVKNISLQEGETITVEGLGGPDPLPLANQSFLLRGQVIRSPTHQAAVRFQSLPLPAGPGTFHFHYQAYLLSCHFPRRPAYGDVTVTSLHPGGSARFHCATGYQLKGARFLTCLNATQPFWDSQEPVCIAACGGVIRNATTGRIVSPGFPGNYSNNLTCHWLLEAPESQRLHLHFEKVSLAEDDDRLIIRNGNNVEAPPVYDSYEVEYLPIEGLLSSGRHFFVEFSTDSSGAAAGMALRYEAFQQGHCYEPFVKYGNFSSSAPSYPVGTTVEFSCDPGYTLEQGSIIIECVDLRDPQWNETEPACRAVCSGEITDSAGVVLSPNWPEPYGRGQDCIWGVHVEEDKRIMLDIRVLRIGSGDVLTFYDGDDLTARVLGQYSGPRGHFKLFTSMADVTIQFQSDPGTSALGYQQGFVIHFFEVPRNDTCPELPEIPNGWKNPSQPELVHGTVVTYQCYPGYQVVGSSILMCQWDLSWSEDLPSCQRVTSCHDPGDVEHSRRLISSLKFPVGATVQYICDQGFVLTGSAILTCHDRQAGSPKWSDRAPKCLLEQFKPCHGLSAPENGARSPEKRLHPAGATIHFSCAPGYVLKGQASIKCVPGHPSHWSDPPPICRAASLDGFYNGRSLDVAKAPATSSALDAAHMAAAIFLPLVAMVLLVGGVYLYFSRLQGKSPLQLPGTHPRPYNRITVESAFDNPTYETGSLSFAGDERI
Briefly: flow cytometry, RIN-m5F cells, 5 ug/mL antibody.
Protocol: as §1

Experiment [3] addresses T3, human SEZ6L2 ECD-His (human, UniProt Q6UXD5 28-843).
T3 construct: whole entry named
Briefly: mark of Table 5 for antibodies that bind SEZ6L2.

The target in another experiment is T4, human SEZ6L ECD-His (human, UniProt Q9BYH1 29-955).
T4 construct: whole entry named
T4 sequence: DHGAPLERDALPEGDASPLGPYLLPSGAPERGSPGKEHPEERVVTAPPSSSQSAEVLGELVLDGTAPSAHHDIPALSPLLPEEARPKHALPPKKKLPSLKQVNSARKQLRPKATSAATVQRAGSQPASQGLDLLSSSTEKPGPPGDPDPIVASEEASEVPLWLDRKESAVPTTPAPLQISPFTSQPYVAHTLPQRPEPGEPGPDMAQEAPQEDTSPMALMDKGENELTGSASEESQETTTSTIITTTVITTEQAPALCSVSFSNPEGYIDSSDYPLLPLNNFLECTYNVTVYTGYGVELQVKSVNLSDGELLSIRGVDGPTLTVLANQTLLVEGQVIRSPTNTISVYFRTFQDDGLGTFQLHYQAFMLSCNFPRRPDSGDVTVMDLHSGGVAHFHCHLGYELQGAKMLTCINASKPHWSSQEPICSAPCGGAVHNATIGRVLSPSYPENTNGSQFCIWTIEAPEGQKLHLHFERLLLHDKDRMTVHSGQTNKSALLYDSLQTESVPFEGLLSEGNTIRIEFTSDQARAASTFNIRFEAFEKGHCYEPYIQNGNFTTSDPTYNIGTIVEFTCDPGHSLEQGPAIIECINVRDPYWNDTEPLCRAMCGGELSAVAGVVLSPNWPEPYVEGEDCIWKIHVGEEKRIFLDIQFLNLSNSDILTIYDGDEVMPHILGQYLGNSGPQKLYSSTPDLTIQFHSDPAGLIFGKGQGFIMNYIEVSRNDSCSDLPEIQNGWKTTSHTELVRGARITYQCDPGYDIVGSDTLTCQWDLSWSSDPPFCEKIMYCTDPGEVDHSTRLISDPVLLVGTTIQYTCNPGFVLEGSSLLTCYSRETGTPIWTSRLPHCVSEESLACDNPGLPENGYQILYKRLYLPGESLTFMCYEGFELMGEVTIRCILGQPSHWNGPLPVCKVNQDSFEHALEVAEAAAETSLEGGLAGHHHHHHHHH
The experiment in a line: ELISA on plates coated with SEZ6L protein. For orientation: ELISA stands for enzyme-linked immunosorbent assay.

A further experiment concerns the target T5, hSEZ6-ECD-His (human, UniProt Q53EL9 20-925).
T5 construct: the whole entry is named; also called recombinant SEZ6-His; human recombinant SEZ6-His
The experiment in a line: bio-layer interferometry (ForteBio RED) or surface plasmon resonance (Biacore 2000) on human SEZ6-His; the table does not say which; column Hu Affinity (Kd, nM). For orientation: In BLI a coated tip is dipped into the sample, and binding shifts an interference pattern.

Experiment [4] deals with T6, SEZ6 N3 (aa 170-335) on yeast (human, UniProt Q53EL9 189-354).
T6 construct: yeast display
T6 sequence: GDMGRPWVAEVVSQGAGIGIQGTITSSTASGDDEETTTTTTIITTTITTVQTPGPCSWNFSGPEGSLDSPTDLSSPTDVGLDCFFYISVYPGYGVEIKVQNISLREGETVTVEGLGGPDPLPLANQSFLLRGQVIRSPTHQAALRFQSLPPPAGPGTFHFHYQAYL
Briefly: yeast display, flow cytometry.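 Further: antibody binding to individual SEZ6 domains displayed on yeast, measured by flow cytometry, antibody at 50 nM purified or hybridoma supernatant diluted 1:2, 90 min on ice.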

In the next experiment the target is T7, rSEZ6-ECD-His (rat, UniProt Q7TSK2 20-922 (mouse entry)).
T7 construct: the whole entry is named; also called rat recombinant SEZ6-His; rat SEZ6 ECD
T7 chain: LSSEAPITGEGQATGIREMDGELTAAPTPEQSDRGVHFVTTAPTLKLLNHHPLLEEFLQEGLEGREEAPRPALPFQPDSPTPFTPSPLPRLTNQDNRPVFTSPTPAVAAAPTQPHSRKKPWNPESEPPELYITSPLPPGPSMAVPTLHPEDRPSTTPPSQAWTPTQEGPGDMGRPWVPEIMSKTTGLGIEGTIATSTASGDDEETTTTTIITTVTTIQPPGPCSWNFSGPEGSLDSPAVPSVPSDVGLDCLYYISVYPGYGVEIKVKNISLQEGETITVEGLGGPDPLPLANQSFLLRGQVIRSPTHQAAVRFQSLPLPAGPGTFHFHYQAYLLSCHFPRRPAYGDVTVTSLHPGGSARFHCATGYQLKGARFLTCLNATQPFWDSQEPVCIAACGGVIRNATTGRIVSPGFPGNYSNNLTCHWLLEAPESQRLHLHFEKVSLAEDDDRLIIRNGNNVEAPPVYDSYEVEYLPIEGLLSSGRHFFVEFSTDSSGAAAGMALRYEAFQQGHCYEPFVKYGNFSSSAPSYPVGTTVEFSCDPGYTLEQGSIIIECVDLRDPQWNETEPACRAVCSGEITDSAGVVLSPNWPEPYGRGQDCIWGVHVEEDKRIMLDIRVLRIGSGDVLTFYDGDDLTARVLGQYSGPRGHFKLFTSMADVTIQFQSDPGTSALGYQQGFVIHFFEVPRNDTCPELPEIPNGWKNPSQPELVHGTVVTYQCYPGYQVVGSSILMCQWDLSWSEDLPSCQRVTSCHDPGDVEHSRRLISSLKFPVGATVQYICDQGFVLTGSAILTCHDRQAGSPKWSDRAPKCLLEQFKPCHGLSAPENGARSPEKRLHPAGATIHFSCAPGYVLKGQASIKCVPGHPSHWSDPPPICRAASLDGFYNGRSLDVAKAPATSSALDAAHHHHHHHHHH
The experiment in a line: bio-layer interferometry (ForteBio RED) or surface plasmon resonance (Biacore 2000) on rat SEZ6-His; the table does not say which; column Rat XR (Kd, nM).

Experiment [5] deals with T3, human SEZ6L2 ECD-His. Briefly: ELISA on plates coated with SEZ6L2 protein.
Protocol: (§2) To determine cross reactivity to family member proteins, SEZ6L and SEZ6L2, an ELISA-based assay was used. Plates were coated with SEZ6, SEZ6L, or SEZ6L2 proteins at 0.2 μg/mL in PBS overnight. After washing with PBS containing 0.05% (v/v) Tween 20 (PB ST), the wells were blocked with 2% (w/v) BSA in PBS (PB SA), 100 μL/well for 1 hour at room temperature. Antibody was then added at 1 μg/mL in 100 μL PBSA for 1 hour at room temperature. After washing with PBST, 100 μL/well HRP-labeled goat anti-mouse IgG diluted 1:2,000 in PBSA for 1 hour at room temperature. […] After developing, an equal volume of 2M H₂SO₄ was added to stop substrate development and analyzed by spectrophotometer at OD 450.
Experiment [6] addresses T8, extracellular domain of cynomolgus SEZ6 on yeast (cynomolgus, UniProt Q53EL9 23-925 (human entry)).
T8 construct: yeast display; the whole entry is named; also called cSEZ6; cynomolgus SEZ6 ECD
T8 chain: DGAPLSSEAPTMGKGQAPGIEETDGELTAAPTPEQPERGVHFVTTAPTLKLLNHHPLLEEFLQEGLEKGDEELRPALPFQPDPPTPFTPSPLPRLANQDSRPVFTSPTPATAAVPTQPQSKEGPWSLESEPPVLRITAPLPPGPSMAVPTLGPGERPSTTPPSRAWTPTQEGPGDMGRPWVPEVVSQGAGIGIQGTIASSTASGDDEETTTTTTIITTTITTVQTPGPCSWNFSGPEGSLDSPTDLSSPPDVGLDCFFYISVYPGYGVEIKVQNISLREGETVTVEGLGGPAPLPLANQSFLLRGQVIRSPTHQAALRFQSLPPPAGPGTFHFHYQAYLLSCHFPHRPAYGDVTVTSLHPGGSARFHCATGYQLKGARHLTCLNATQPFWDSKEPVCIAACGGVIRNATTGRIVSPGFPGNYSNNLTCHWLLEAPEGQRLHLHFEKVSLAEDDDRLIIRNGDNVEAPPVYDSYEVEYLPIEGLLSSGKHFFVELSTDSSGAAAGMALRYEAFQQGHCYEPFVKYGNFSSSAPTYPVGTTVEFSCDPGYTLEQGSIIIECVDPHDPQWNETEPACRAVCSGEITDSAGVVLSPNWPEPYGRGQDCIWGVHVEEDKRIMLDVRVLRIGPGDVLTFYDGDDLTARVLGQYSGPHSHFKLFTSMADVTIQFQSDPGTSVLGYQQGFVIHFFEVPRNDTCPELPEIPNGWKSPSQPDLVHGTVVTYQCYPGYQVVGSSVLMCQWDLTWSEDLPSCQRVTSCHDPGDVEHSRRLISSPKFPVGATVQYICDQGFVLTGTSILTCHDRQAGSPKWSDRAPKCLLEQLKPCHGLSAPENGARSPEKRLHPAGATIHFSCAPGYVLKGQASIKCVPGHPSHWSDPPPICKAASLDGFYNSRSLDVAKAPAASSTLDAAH
The experiment in a line: flow cytometry, yeast displaying cynomolgus SEZ6 ECD, 5 ug/mL antibody.
Protocol: as §1

Experiment [7] has as its target T2, rat SEZ6 on RIN-m5F cells. The experiment in a line: flow cytometry on RIN-m5F cells expressing rat SEZ6, verified by BLI or SPR on rat SEZ6-His.
Protocol: as §1
To verify the cross reactivity data above for rat SEZ6 and to determine the affinity and kinetic constants kₒₙ and koff of the selected effectors, either bio-layer interferometry analysis on a ForteBio RED (ForteBio, Inc.) or surface plasmon resonance on a Biacore 2000 (GE Healthcare) were conducted.

T3 sequence (Q6UXD5 other isoform, or with tags, fused parts or gaps): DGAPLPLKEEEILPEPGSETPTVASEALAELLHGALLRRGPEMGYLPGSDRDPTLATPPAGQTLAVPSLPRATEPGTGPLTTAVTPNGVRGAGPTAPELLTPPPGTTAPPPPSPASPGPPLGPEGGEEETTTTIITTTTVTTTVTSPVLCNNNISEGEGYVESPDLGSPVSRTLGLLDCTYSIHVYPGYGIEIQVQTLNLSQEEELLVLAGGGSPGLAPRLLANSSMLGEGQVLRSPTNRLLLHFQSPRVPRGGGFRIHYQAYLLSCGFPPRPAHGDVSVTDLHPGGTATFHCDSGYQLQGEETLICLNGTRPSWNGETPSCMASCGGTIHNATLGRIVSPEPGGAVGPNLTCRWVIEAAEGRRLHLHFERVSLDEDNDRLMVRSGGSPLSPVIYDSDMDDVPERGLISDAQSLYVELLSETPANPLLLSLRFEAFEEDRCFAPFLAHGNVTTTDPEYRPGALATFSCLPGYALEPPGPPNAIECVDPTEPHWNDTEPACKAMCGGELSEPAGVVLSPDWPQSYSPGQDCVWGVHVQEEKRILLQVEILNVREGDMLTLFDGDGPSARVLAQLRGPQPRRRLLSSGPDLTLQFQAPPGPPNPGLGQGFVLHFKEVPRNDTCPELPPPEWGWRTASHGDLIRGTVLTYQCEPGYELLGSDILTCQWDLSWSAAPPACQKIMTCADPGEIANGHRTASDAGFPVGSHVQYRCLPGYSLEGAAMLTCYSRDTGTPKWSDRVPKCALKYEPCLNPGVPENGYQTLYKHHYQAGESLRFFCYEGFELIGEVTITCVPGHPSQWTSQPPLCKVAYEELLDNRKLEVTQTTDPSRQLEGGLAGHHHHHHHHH
Description for hSEZ6-ECD-His: (§3) Various methods were used to analyze the binding and immunochemical characteristics of selected SEZ6 modulators generated as set forth above.
Protocol for human SEZ6L ECD-His: as §2
Description for rSEZ6-ECD-His: as §3

B1: SC17.19 (antibody, V domains shown)
VH: DVQLQESGPGLVKPSQSLSVTCTVTGYSITSSYTWNWIRQFPGNKLEWMGYIHYSGSTNYNPSLRSRISITRDTSKNQFFLQLNSVTTEDTATYYCARSRYYYDAYGFAYWGQGTLVTVSA
VL: DIVLTQSPASLAVSLGQRAAISCKPSQSVDYDGDSYMNWYQQKPGQPPKLLIYAASNLESGIPARFSGSGSGTDFTLNIHPVEEEDAATYYCHQINDDPWTFGGGTKLK
notes: murine mAb
On to B1, for which the binding result in experiment [1] is recorded as “binds”; in experiment [2] it was “binds”; with human SEZ6L2 ECD-His [3], “binds”; in the experiment with human SEZ6L ECD-His, “no binding (tested: 1 µg/mL)”. The molecule further showed a dissociation constant (Kd) in the experiment with hSEZ6-ECD-His of 5.3 nM.

B2: SC17.85 (antibody, V domains shown)
VH: EVQLVESGGDLVKPGGSLKLSCAASGFTFSNYGMSWVRQTPDKRLEWVATISTGGTYTYYPDSVKGRFTISRDNAKNTLYLQMSSLKSEDTAMYYCVGQSYSDYVSFAYWGQGTQVTVSA
VL: DIVMTQAAFSNPVTLGTSASISCRSSKSLLHSNGITYLYWYLQKPGQSPQLLIYQMSNLASGVPERFSSSGSGSDFTLRISRVEAEDVGVYYCAQNLEHPTFGGGTKLEIK
notes: murine mAb
Consider B2, for which the binding result in experiment [4] is recorded as “binds”.

B3: SC17.6 (antibody, V domains shown)
VH: EVQLQQSGPELMKPGASVKMSCKASGYTFTDYNMYWVKQNQGKSLEWIGEINPNNGGTAYNQKFRGKATLTVDKSSSTAYMELRSLTSEDSAVYYCARYDKGFDYWGQGTTLTVSS
VL: DIQMTQSPASLSVSVGETVTITCRASANINSNLVWYQQKQGKSPQLLVYAATNLADGVPSRFSGSGSGTQYSLKINSLQSEDFGNYYCQHFWGTPRTFGGGTKLEIK
notes: murine mAb; also called SC17.16 (duplicate)
For the molecule B3, the binding result in experiment [1] was “binds”; in experiment [2], “binds”; with human SEZ6L2 ECD-His [3], “binds”; in the experiment with human SEZ6L ECD-His, “no binding (tested: 1 µg/mL)”. Moreover, the equilibrium dissociation constant (Kd) with rSEZ6-ECD-His and in the experiment with hSEZ6-ECD-His was below 1 nM each time.

B4: SC17.24 (antibody, V domains shown)
VH: QVQLQQSDAELVKPGASVKISCKVSGYTFTDHTIHWMKQRPEQGLEWIGYIYPRDGSTKYNEEFKGKATLTADKSSSTAYMQLNSLTSEDSAVYFCARSYSNYFDYWGQGTTLTVSS
VL: DIVMSQSPSSLAVSVGEKVTMSCKSSQSLLYSSNQKSYLAWYQQKPGQSPKLLIYWASTRESGVPDRFTGSGSGTDFTLTISSVQAEDLAVYYCKQSYNLRTFGGGTKLEIK
notes: murine mAb
In the case of B4, the binding result in experiment [1] was “binds”; in the experiment with human SEZ6L ECD-His, “no binding (tested: 1 µg/mL)”; in the experiment with human SEZ6L2 ECD-His [5], “no binding (tested: 1 µg/mL)”; in experiment [6], “binds”; in experiment [7] it was “no binding (tested: 5 µg/mL)”. In the experiment with hSEZ6-ECD-His, this molecule yielded a dissociation constant (Kd) of 5.1 nM.

For orientation: Kd means the free concentration of one partner at which half of the binding sites on the other are occupied at equilibrium, for simple one-to-one binding.
